Measurements as given in the supplement of paper PMC10065799, “High-throughput profiling of sequence recognition by tyrosine kinases and SH2 domains using bacterial peptide display” (eLife, 2023).

Target: Hck (UniProt P08631)
Assay: phosphorylation enrichment, bacterial display (enrichment ratio); higher = better substrate or ligand; peptides without Tyr show the background
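Also: 11-residue human phosphosite peptides and single-mutation variants displayed on the E. coli surface, counted by deep sequencing, each peptide's frequency after selection divided by its frequency in the unselected input library; frequency after pTyr selection over input frequency; kinase dosed for 20-30% of maximal phosphorylation in three min.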

Hck, sequence (P08631 whole entry, looked up): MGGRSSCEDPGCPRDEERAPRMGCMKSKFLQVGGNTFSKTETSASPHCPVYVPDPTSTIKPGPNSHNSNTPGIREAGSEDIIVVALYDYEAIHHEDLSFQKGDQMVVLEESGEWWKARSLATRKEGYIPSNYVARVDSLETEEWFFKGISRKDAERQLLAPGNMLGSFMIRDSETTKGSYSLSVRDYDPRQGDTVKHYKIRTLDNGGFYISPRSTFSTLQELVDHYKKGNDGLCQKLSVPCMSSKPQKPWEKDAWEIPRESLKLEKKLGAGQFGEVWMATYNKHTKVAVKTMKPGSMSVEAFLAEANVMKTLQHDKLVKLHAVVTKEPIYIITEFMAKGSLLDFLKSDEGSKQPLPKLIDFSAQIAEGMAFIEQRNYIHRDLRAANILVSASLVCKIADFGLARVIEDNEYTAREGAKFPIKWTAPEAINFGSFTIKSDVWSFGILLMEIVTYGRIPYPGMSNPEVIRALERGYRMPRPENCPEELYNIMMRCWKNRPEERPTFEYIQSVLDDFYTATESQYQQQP

| Sequence | phosphorylation enrichment |
| --- | --- |
| YSSLGYPLPEG [ZSWIM4_Y87_P89L] | 2.05 |
| FAASSYSFSDL [EMD_Y59_S54F] | 0.64 |
| TVLWQYTGTRP [UGT1A1_Y337_R336Q] | 0.499 |
| SHNELYYEEAE [VANGL1_Y344] | 0.626 |
| KQQEIYQELTQ [CD209_Y239] | 6.43 |
| DKMEAYNIDET [TEKT4_Y210] | 0.583 |
| ADYPDCKYRPR [SOX11_Y116_Y116C] | 0.416 |
| HESEIYGKVCF [CSRP3_Y57_C58G_YF] | 3.95 |
| RRFVFYFSFLL [PTEN_Y177_YF] | 0.899 |
| LEQDEYALRSH [HADHB_Y244] | 1.08 |
| RLLVVYPWTQR [HBB_Y36] | 0.497 |
| SESSFYKSLNL [NGEF_Y289_A286S_YF] | 0.521 |
| KSNSDYVDVLP [SH2D1B_Y127_N122K] | 0.477 |
| SSDKVYAHQMD [MLH1_Y379_V384D] | 0.419 |
| CSEETYRLMLQ [RET_Y981_M980T] | 0.576 |
| LMIEEYLTKEP [BAG3_Y457_L462P] | 1.5 |
| RLLVVFPWTQR [HBB_Y36_Y36F] | 0.829 |

| Sequence | phosphorylation enrichment |
| --- | --- |
| PARLEYFENEK [IRS1_Y46_YF] | 0.709 |
| IIRYNYLLDVL [FGFR4_Y237_S232I] | 0.557 |
| APQYTYAQGGQ [FLNA_Y1763] | 0.509 |
| SPRDTYSDRIG [CTPS1_Y567_S571I] | 0.471 |
| RISRKYKKVRF [F8_Y442_G439S] | 0.571 |
| VLRQVYVDFEG [KMT2B_Y1707_R1705Q] | 0.86 |
| DHTVNYVLKCR [PLEKHG4_Y1068_R1064H] | 0.532 |
| DLDTDYGSGYP [RNASEH2A_Y206] | 0.589 |
| FSQETYFRVSN [ABCD1_Y180_Q178E_YF] | 0.868 |
| EQKRFYNAMKK [SCN5A_Y1495_K1493R_YF] | 0.342 |
| NTGLEYIKFTW [HRH1_Y386_D385E] | 0.58 |
| LGSWTYPKTVS [ROS1_Y144_T145P] | 0.577 |
| MAFDRYVAICS [OR8D4_Y123_C120Y_YF] | 0.665 |
| SDGHEYIYVDP [PDGFRB_Y579] | 1.2 |
| ERDYTYEELLN [EIF2S2_Y176] | 1.32 |
| FEEDSYSHVMA [FDPS_Y388_I391V_YF] | 0.646 |

Target: Jak2 (UniProt O60674)
Assay: as above

Jak2, sequence (O60674 whole entry, looked up): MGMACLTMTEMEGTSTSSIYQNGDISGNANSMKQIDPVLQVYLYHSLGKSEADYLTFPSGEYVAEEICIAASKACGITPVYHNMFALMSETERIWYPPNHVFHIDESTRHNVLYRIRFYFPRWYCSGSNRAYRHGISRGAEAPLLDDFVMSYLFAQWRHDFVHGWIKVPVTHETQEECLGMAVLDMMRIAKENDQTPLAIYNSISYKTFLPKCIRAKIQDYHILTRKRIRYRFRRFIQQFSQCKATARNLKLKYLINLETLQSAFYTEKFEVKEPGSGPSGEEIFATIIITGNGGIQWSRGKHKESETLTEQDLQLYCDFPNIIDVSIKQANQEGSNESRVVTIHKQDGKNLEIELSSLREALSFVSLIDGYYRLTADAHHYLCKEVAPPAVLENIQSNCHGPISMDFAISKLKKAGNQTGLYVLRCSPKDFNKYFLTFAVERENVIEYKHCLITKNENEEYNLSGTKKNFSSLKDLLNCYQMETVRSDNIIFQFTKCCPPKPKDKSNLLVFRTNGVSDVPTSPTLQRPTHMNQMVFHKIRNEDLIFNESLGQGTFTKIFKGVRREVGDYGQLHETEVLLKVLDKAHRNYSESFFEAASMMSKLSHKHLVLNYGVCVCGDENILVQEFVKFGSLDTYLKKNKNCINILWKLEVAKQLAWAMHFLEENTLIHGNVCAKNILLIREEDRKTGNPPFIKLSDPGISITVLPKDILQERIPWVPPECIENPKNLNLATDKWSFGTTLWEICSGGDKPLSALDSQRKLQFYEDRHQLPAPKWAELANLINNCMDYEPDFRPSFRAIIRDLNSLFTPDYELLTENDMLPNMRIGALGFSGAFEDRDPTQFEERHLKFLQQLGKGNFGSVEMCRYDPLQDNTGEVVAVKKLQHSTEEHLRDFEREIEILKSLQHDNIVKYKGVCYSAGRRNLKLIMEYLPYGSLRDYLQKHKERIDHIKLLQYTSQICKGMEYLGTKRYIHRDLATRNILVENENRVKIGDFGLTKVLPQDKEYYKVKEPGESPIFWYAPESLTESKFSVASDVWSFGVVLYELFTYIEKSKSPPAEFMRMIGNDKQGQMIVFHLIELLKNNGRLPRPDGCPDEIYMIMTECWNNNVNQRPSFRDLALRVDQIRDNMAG

| Sequence | phosphorylation enrichment |
| --- | --- |
| YSSLGYPLPEG [ZSWIM4_Y87_P89L] | 0.785 |
| FAASSYSFSDL [EMD_Y59_S54F] | 0.849 |
| TVLWQYTGTRP [UGT1A1_Y337_R336Q] | 1.01 |
| SHNELYYEEAE [VANGL1_Y344] | 1.37 |
| KQQEIYQELTQ [CD209_Y239] | 0.917 |
| DKMEAYNIDET [TEKT4_Y210] | 1.04 |
| ADYPDCKYRPR [SOX11_Y116_Y116C] | 0.657 |
| HESEIYGKVCF [CSRP3_Y57_C58G_YF] | 1.19 |
| RRFVFYFSFLL [PTEN_Y177_YF] | 0.622 |
| LEQDEYALRSH [HADHB_Y244] | 2.54 |
| RLLVVYPWTQR [HBB_Y36] | 0.967 |
| SESSFYKSLNL [NGEF_Y289_A286S_YF] | 1.06 |
| KSNSDYVDVLP [SH2D1B_Y127_N122K] | 0.705 |
| SSDKVYAHQMD [MLH1_Y379_V384D] | 0.497 |
| CSEETYRLMLQ [RET_Y981_M980T] | 1.03 |
| LMIEEYLTKEP [BAG3_Y457_L462P] | 2.78 |
| RLLVVFPWTQR [HBB_Y36_Y36F] | 1.59 |

| Sequence | phosphorylation enrichment |
| --- | --- |
| PARLEYFENEK [IRS1_Y46_YF] | 2 |
| IIRYNYLLDVL [FGFR4_Y237_S232I] | 1.03 |
| APQYTYAQGGQ [FLNA_Y1763] | 0.54 |
| SPRDTYSDRIG [CTPS1_Y567_S571I] | 0.374 |
| RISRKYKKVRF [F8_Y442_G439S] | 0.64 |
| VLRQVYVDFEG [KMT2B_Y1707_R1705Q] | 0.993 |
| DHTVNYVLKCR [PLEKHG4_Y1068_R1064H] | 1.09 |
| DLDTDYGSGYP [RNASEH2A_Y206] | 1.14 |
| FSQETYFRVSN [ABCD1_Y180_Q178E_YF] | 3 |
| EQKRFYNAMKK [SCN5A_Y1495_K1493R_YF] | 0.562 |
| NTGLEYIKFTW [HRH1_Y386_D385E] | 1.37 |
| LGSWTYPKTVS [ROS1_Y144_T145P] | 0.734 |
| MAFDRYVAICS [OR8D4_Y123_C120Y_YF] | 1.07 |
| SDGHEYIYVDP [PDGFRB_Y579] | 1.62 |
| ERDYTYEELLN [EIF2S2_Y176] | 1.18 |
| FEEDSYSHVMA [FDPS_Y388_I391V_YF] | 1.14 |

Target: MERTK (UniProt Q12866)
Assay: as above

MERTK, sequence (Q12866 whole entry, looked up): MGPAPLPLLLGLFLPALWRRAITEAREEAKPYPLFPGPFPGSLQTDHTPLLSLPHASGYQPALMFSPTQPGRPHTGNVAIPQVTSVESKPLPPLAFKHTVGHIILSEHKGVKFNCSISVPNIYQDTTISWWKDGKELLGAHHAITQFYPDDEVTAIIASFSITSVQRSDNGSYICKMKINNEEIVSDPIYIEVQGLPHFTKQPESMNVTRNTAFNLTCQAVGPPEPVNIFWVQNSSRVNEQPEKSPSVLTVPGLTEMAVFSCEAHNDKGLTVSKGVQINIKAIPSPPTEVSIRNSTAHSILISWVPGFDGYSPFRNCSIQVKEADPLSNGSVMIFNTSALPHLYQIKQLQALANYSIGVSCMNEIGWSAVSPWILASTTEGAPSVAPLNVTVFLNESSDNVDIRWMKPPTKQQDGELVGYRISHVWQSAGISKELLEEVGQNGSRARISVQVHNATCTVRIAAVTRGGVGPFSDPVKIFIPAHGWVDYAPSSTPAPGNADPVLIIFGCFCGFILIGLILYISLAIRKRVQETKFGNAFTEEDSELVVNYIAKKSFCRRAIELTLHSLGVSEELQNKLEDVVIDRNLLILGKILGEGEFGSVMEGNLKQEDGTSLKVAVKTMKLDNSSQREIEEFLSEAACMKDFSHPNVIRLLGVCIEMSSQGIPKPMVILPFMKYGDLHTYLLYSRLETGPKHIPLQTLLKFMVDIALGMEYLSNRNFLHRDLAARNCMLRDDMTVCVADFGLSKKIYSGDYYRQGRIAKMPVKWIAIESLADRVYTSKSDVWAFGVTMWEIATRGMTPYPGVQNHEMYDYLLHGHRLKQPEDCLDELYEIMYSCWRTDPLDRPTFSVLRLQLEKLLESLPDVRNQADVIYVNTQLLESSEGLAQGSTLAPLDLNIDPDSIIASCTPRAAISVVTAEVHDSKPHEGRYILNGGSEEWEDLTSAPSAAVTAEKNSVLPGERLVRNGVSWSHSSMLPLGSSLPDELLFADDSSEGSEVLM

| Sequence | phosphorylation enrichment |
| --- | --- |
| YSSLGYPLPEG [ZSWIM4_Y87_P89L] | 7.91 |
| FAASSYSFSDL [EMD_Y59_S54F] | 0.78 |
| TVLWQYTGTRP [UGT1A1_Y337_R336Q] | 0.345 |
| SHNELYYEEAE [VANGL1_Y344] | 0.58 |
| KQQEIYQELTQ [CD209_Y239] | 4.81 |
| DKMEAYNIDET [TEKT4_Y210] | 0.459 |
| ADYPDCKYRPR [SOX11_Y116_Y116C] | 0.41 |
| HESEIYGKVCF [CSRP3_Y57_C58G_YF] | 1.24 |
| RRFVFYFSFLL [PTEN_Y177_YF] | 0.593 |
| LEQDEYALRSH [HADHB_Y244] | 0.724 |
| RLLVVYPWTQR [HBB_Y36] | 0.523 |
| SESSFYKSLNL [NGEF_Y289_A286S_YF] | 0.468 |
| KSNSDYVDVLP [SH2D1B_Y127_N122K] | 0.43 |
| SSDKVYAHQMD [MLH1_Y379_V384D] | 0.408 |
| CSEETYRLMLQ [RET_Y981_M980T] | 0.451 |
| LMIEEYLTKEP [BAG3_Y457_L462P] | 1.12 |
| RLLVVFPWTQR [HBB_Y36_Y36F] | 0.784 |

| Sequence | phosphorylation enrichment |
| --- | --- |
| PARLEYFENEK [IRS1_Y46_YF] | 0.784 |
| IIRYNYLLDVL [FGFR4_Y237_S232I] | 0.52 |
| APQYTYAQGGQ [FLNA_Y1763] | 0.486 |
| SPRDTYSDRIG [CTPS1_Y567_S571I] | 0.416 |
| RISRKYKKVRF [F8_Y442_G439S] | 0.805 |
| VLRQVYVDFEG [KMT2B_Y1707_R1705Q] | 0.465 |
| DHTVNYVLKCR [PLEKHG4_Y1068_R1064H] | 0.419 |
| DLDTDYGSGYP [RNASEH2A_Y206] | 0.554 |
| FSQETYFRVSN [ABCD1_Y180_Q178E_YF] | 0.74 |
| EQKRFYNAMKK [SCN5A_Y1495_K1493R_YF] | 0.387 |
| NTGLEYIKFTW [HRH1_Y386_D385E] | 0.474 |
| LGSWTYPKTVS [ROS1_Y144_T145P] | 0.664 |
| MAFDRYVAICS [OR8D4_Y123_C120Y_YF] | 0.507 |
| SDGHEYIYVDP [PDGFRB_Y579] | 0.92 |
| ERDYTYEELLN [EIF2S2_Y176] | 0.426 |
| FEEDSYSHVMA [FDPS_Y388_I391V_YF] | 0.631 |

Tested on: c-Abl (mouse)
Assay: as above

| Sequence | phosphorylation enrichment |
| --- | --- |
| YSSLGYPLPEG [ZSWIM4_Y87_P89L] | 0.978 |
| FAASSYSFSDL [EMD_Y59_S54F] | 0.707 |
| TVLWQYTGTRP [UGT1A1_Y337_R336Q] | 0.436 |
| SHNELYYEEAE [VANGL1_Y344] | 0.896 |
| KQQEIYQELTQ [CD209_Y239] | 1.77 |
| DKMEAYNIDET [TEKT4_Y210] | 0.755 |
| ADYPDCKYRPR [SOX11_Y116_Y116C] | 0.706 |
| HESEIYGKVCF [CSRP3_Y57_C58G_YF] | 1.34 |
| RRFVFYFSFLL [PTEN_Y177_YF] | 0.502 |
| LEQDEYALRSH [HADHB_Y244] | 1.9 |
| RLLVVYPWTQR [HBB_Y36] | 0.77 |
| SESSFYKSLNL [NGEF_Y289_A286S_YF] | 0.853 |
| KSNSDYVDVLP [SH2D1B_Y127_N122K] | 0.531 |
| SSDKVYAHQMD [MLH1_Y379_V384D] | 0.442 |
| CSEETYRLMLQ [RET_Y981_M980T] | 0.81 |
| LMIEEYLTKEP [BAG3_Y457_L462P] | 2.45 |
| RLLVVFPWTQR [HBB_Y36_Y36F] | 1.11 |

| Sequence | phosphorylation enrichment |
| --- | --- |
| PARLEYFENEK [IRS1_Y46_YF] | 0.999 |
| IIRYNYLLDVL [FGFR4_Y237_S232I] | 0.976 |
| APQYTYAQGGQ [FLNA_Y1763] | 0.54 |
| SPRDTYSDRIG [CTPS1_Y567_S571I] | 0.411 |
| RISRKYKKVRF [F8_Y442_G439S] | 0.711 |
| VLRQVYVDFEG [KMT2B_Y1707_R1705Q] | 0.692 |
| DHTVNYVLKCR [PLEKHG4_Y1068_R1064H] | 0.859 |
| DLDTDYGSGYP [RNASEH2A_Y206] | 1.21 |
| FSQETYFRVSN [ABCD1_Y180_Q178E_YF] | 0.661 |
| EQKRFYNAMKK [SCN5A_Y1495_K1493R_YF] | 0.698 |
| NTGLEYIKFTW [HRH1_Y386_D385E] | 0.657 |
| LGSWTYPKTVS [ROS1_Y144_T145P] | 0.732 |
| MAFDRYVAICS [OR8D4_Y123_C120Y_YF] | 0.78 |
| SDGHEYIYVDP [PDGFRB_Y579] | 1.6 |
| ERDYTYEELLN [EIF2S2_Y176] | 0.67 |
| FEEDSYSHVMA [FDPS_Y388_I391V_YF] | 0.731 |
